Data on 20 sequences can be found in the DeepSol protein solubility set.

This data set can be described thus: soluble on expression in E. coli; label from the status in PepcDB or PDB records.
Regarding “MSLKYGRDTIVEVDLNAVKHNVKEFKKRVNDENIAMMAAVKANGYGHGAVEVAKAAIEAGINQLAIAFVDEAIELREAGINVPILILGYTSVAAAEEAIQYDVMMTVYRSEDLQGINEIANRLQKKAQIQVKIDTGMSRIGLQEEEVKPFLEELKRMEYVEVVGMFTHYSTADEIDKSYTNMQTSLFEKAVNTAKELGIHIPYIHSSNSAGSMEPSNTFQNMVRVGIGIYGMYPSKEVNHSVVSLQPALSLKSKVAHIKHAKKNRGVSYGNTYVTTGEEWIATVPIGYADGYNRQLSNKGHALINGVRVPVIGRVCMDQLMLDVSKAMPVQVGDEVVFYGKQGEENIAVEEIADMLGTINYEVTCMLDRRIPRVYKENNETTAVVNILRKN”, the “soluble on expression in E. coli” value was “not soluble”.
The same measure for “GATITHQEKLLTVDTTAHPFLKALGGHEGTDIFPLFMDPYNGLMVMRASFAPGLTLPLHFHTGTVHMYTISGCWYYTEYPGQKQTAGCYLYEPGGSIHQFNTPRDNEGQTEVIFMLSGCNVNFTQDGTYLGLSDAGVIKNWVDRAIREQDNGLRYIAAAVPTYAA”: “soluble”.
Next, “MSVEASNQENSLSSFLLKCAFPAGTTPPLLSPPSSSGSYEEAQFSLFVNQNETEQKLFSNQSLANRDPCTIPDELHQEMKSLKKKEEAFKTSLCGFHRRGQKCAYGEKCKFAHSVHELRFPQTKRNHRNYKTVLCNNFSTTGHCKYGIRCQFIHRSMNSTSSNQSNKMENITIDLNVQSDVFRAFALDSTSLLPNWHCSALLQ”: “not soluble”.
The same measure for “KIIVKHVTVIGGGLMGAGIAQVAAATGHTVVLVDQTEDILAKSKKGIEESLRKVAKKKFAENPKAGDEFVAKTLSTIATSTDAASVVHSTDLVVEAIVENLKVKNELFKRLDKRAAEHTIFASNTSSLQITSIANATTRQDRFAGLHFFNPVPVMKLVEVIKTPMTSQKTFESLVDFSKALGKHPVSCKDTPGFIVNRLLVPYLMEAIRLYERGDASKEDIDTAMKLGAGYPMGPFELLDYVGLDTTKFIVDGWHEMDAENPLHQPSPSLNKLVAENKFGKKTGEGFYKYKAA”: “soluble”; for “GIDTVGGKMTVCQLYDKKNSQRKNIKRATEKGRQYLMNALKNDPLGMRAIDTVKQSDAKEWAIRMSEKGYAYKTIDNYKRSLKASFYMAIQDDCIRKNPFDFKLSDVLEDDTEQKVILTPEQEERLLAFMEKDKIYSKYYDEVVLLLETGLRISEFCGLTMHIDMQNRILNIDHQLLKDSEIGYYIETPKTKNGKRELPLTERAYQAIQRILKSRGKAQPLIVGGYSNFLFLNREGLPKVAGNYEGMVRGLIKKYNKYHTDKLPNITPHSFRHTYCTNMANRGMNPNTLQYLMGHANITMTLGYYAHGTFQSAKAELERLAC”: “not soluble”; for “MAMQMQLEANADTSVEEESFGPQPISRLEQCGINANDVKKLEEAGFHTVEAVAYAPKKELINIKGISEAKADKILAEAAKLVPMGFTTATEFHQRRSEIIQITTGSKELDKLLQGGIETGSITEMFGEFRTGKTQICHTLAVTCQLPIDRGGGEGKAMYIDTEGTFRPERLLAVAERYGLSGSDVLDNVAYARAFNTDHQTQLLYQASAMMVESRYALLIVDSATALYRTDYSGRGELSARQMHLARFLRMLLRLADEFGVAVVITNQVVAQVDGAAMFAADPKKPIGGNIIAHASTTRLYLRKGRGETRICKIYDSPCLPEAEAMFAINADGVGDAKD”: “soluble”.
On to “MSQDVNELSKQPTPDKAEDNAFFPSPYSLSQYTAPKTDFDGVEHKGAYKDGKWKVLMIAAEERYVLLENGKMFSTGNHPVEMLLPLHHLMEAGFDVDVATLSGYPVKLELWAMPTEDEAVISTYNKLKEKLKQPKKLADVIKNELGPDSDYLSVFIPGGHAAVVGISESEDVQQTLDWALDNDRFIVTLCHGPAALLSAGLNREKSPLEGYSVCVFPDSLDEGANIEIGYLPGRLKWLVADLLTKQGLKVVNDDMTGRTLKDRKLLTGDSPLASNELGKLAVNEMLNAIQNK”, for which the “soluble on expression in E. coli” value is “not soluble”.
“MSLIYPEITGKSGEHLRLKTLESVWIQGKLRMWGRWSYIGDGKTGNMFNQLLTSKKLTKTAINEALRRMKKAGLDKPELEAFLRDMINGNQKSWLAHCTDSEALIIDRVIGEVLAGYPGLLNVLSQRYVGRGMTKRKMAELLNDAHPEWSLRTCERRIEHWLKVAEFILYKPMVMAFGIEKKVIAFEGHHHHHH”: the “soluble on expression in E. coli” value is listed as “soluble”.
On to “MGSDKIHHHHHHMSAVIGYRHGKAGERGIILCARQFQNSLNESSLEEIKRAIESYPFLQDYYEIGDKYIKSKDGRIVYVFAGLDRNIASIKSMGRVFLCWVDEAEPVTETAWQTLIPTLREEGNDWNAELWVTWNPCRENAPVEKRFRNVNNPHIKGAEITWRDNPQFPEKLNRDRKADLEQRPEHYNHIWEGEYLQTVEGAYYQKALLEASREGRITTVPRDPLMQIRIFWDIGGTGAKADATALWVAQFVGREIRVLDYYEAQGQPLSEHVGWVFQRGYDKALMVLPHDGATKDRVYNVSFESALQQAGFQTKVIPNQGVGAVKMRIEAVRRLFPAIWFNRETTHAGRKALAWYHEKRDEQRNIGLGAEHDWASHGADAFGLMCVAYEQPNMRPKKNTYRSSHHSQTSWMAF”, for which the “soluble on expression in E. coli” value is listed as “not soluble”.
Next, “MSGISIIENAVLKPTKREVAEQWLGYFEHIGSYRFVDPDGQVGIESLIGFDLDRRLVQMPVTYRSAEFDAEHTLTTMDHSVLGTRYVSNAMGDPVAVREYIRVILEADNGAQRSDGKVSVLDVRGSGNREEKLTLGEVRILEATRQRAVGYVRIDGTLRGFVLRVPHLLVPENSPRLGHNISPMRLNGSVVMSPKTVLIAAELSWHDI”: “not soluble”; “MAHHHHHHMKKRTPLVGKRSYFTSLYDTKTEKTKLISEMDDLYDHILTSNWNDSVHLVLNVSIWEGILHSIEARIKPYEQDEDILKKKKMINEMFDVLFILEDLRDHVNELLEQSSRASGLAGTYILASFKIENMVEHIEFLKAKYDELLLKYPLYKYQIDMVLGKGLALLRQRYTFEWRHMHDFFF”: “not soluble”; “MKYCKFCCKAVTGVKLIHVPKCAIKRKLWEQSLGCSLGENSQICDTHFNDSQWKAAPAKGQTFKRRRLNADAVPSKV”: “soluble”.
For the sequence “ADPDTGVDTGAPYWTRPERMDKKLLAVPAANTVRFRCPAAGNPTPSISWLKNGREFRGEHRIGGIKLRHQQWSLVMESVVPSDRGNYTCVVENKFGSIRQTYTLDVLERSPHRPILQAGLPANQTAVLGSDVEFHCKVYSDAQPHIQWLKHVEVNGSKVGPDGTPYVTVLKSWISESVEADVRLRLANVSERDGGEYLCRATNFIGVAEKAFWLSVHGPRAAEEELVEADEAGSVHHHHHH”, the “soluble on expression in E. coli” value is “soluble”.
Next, “MGSDKIHHHHHHEQTVKIGILSDMSGPYSDMGGPGSVAAAQLAIDECLAKECKGMKIELLSIDHQNKPDIGVQKAREWADVNKVNAIADLTNSAVALGVQKLTLDHDFVAMYSGPATTKLTNEDCSATGFHWMFDTYALAAGSAQAITKMGGKSWYFLTVDYAFGHSLEADSMAMVKQLGGTVAGSVRHPLNTADMSSFLLQAQSSKAQVVALANGAADTINAIKTAREFGIVQGGQQVVPLLIFLTDIRSLGLEIAQGLTFTEGFYWDQDDQARAFAARFQKAFKDRKPTMVQAGTYSSVLHYLHAVAAAKTTEAKAVSAKMREMPISDAVMRNAAIRPDGRVIHDMLLVKVKSPAESKGDWDFYTIQATIPAAEAFKPLANSACPTVKK”: “not soluble”; “MAKLFAYQIGQNPRIQTDLLVDPQLFEDEHGCMGAVGFGLADCVQTGMFTDIEVIKRYLHEATYVFINGDFDRLSYLEIGIALSLGKTLYVITMNPNVTKEDLGIPFDNATIEFLSPSAFTERIHETEAAEN”: “not soluble”.
Next, “MKVSLVIPTYNSKDLVAPCLVSLNHQRLDEADEFEVVLVDDGSTDGTGEVVDSLPLTYRIRRVYVPRTEKSCRSAARNAGIRAADGELIVFVDGDQIIDPLFVQEHIRCHRGRPAIVAIGFRDYQAPGAVDLALLERSFTPEAFPPVADQDERAQVTATLSQNMGNLATGWHFFYGCNVSVRKEHLLAVGGFDENIQKWSFEDVELGYRLHRRGLAFVHNLYSRVYHQFHPESDQERYADWRENFEYFTSKHPELEVRLQWVLDSYFDPGRTSRPSWFDAYLRFEFACRAVAERLPIGHSYEVLVVDADNLDSAEREIARVGAAHDLIVVDITDDRELPTAVQAMRTGRELLYFKEPSPELLQQAAKSFGCAALLKYAAEVLEHHHHHH”: “soluble”; “MSLKLFITGIGSGLGKALVEEGIKRGYEVYALSRHLPEEFKEKIHFVKCDLLKVEEVQGCLFKLLSGVKELELAILNAGILGKFSDMKDISLHEIDEVMKVNLWSNKVIIDTLMELGIKVKTLIGISSGAARNCNRGWNAYSLSKAGLNCLLKLYSWELPETKVISLAPGLVLTPMLKEVMSQNEEKYPSIKRIKNAPKLTPEKTAEFIFSILPKLESVESGSFVDVREGHHHHHH”: “soluble”.
Next, “FGNFNFNTNFVFGYAKNRVDYKAEAQQKYEWLRETGRQIGQPFGYHWIGYYTPEDIEKINSGAADAPAKPDIAVQAGDLKYADLNGDGTINDFDKRAIGKPNLPTTTLGWTIGGSWKGFSISVLFQGSFDYSFAINGTGIESGKSQFQPLHQKRWTQERYENGESIEFPRLTMQDGTINSASAYNSDFWLINAWYIRLKTVDLGYQLPKTALPKFLDNVRFYVNAYNLLTFTGYDKYQQDPEIKTNTAGDAYMNQRVINFGVQLGF”: “not soluble”; “MSLQSSVKTERQYLSGRGCDDMVQWDFMCTGGNNSGKWTKIGVPSCWELQGFGTYQYGMKFYGKAFPEGVADEQGLYKYEFELPAEWNGKQIELVFEGSMTDTQVKINGRKAGSMHQGAFYRFIYNVSDRVFFGSKKKNVLEVTVSKESANAGVNLAERRADYWNFGGIFRPVFIVAKPAQNIDRLVIDAKADGNFYADCFLNMAVEGARVHTVITDAKGKKVAENTSDVRTGSDHASINFAVKSPELWTAETPAMYQATFTLLDKAGKTLHVENQKFGFRTIETRESDGLYINGRRVMIKGVNRHSFRPESGRTLSKAKNIEDVLLIKSMNMNAVRLSHYPADPEFFEACDSLGLYVMDELSGWHGKHETINGQKLVKEMITRDVNHPCIIWWSNGNEKGWNTELDGEFHKYDPQKRPVLHPQGNFSGYETMHYRSYGESQNYMRLPEIFMPTEFLHGLYDGGHGAGLYDYWEMMRKHPRCAGGFLWVLADEGVKRVDMNGFIDNCGNYGADGIVGPHHEKEGSYFTIKQVWCPIQIMTDSLDSQFDGKLKIENRYDFLNANTCRFTYKYVQLPSVTDKGGMKVMKQGEVNCPDIPAHGAGTLTIPAAVKGANALMLTVTDKQGNDLFTWSYKLDDVAGLQQVSAGNKPSYKETADALTVDAEGRTFTFSQKDGQLKGVKVGSRIISLANGPRFIAAKRSDRSMDQFYNHDDKEAEKKKTQYTTFDDAGRFTGFTVREEGNNVVVTANYKLGCFDQAVWTIAPDGTAAIDFTYNFSGVVDLMGVMFDYPEDKVLSKRWVGDGPYRVWQNRLHGPQLGVWENEYNDPIPAESFTYPEFKGYFANVQWMTLKTQEGTISICNRTPQNYVGVYQPRDGRDGLLYTFPATGISLMKVIPPVRNKVNTTDLIGPSSQAFWADGAYGGGITLKFEEGHHHHHH”: “soluble”; “MISNDAIRRNMAVFSMSVVSKLTDLTPRQIRYYETHELIKPERTEGQKRLFSLNDLERLLEIKSLLEKGFNIKGIKQIIYDSQEHLTTDEQEIRKKMIVDATQKPIGETLPINRGDLSRFIK”: “not soluble”.
